Measured values taken from the supplement of paper PMC7125110.
± gives the standard error. Variants at the floor of the assay were thinned out.

B1: glmS ribozyme (parent)
chain: AUAAAAGCGCCAGAACUACAGAAAUGUAGUUGACGAGGAGGAGGUUUAUCGAAUUUUCGGCGGAUGCCUCCAAA

Variants of: B1
Assay: self-cleavage kobs at 2500 uM GlcN6P; higher = faster cleavage; RNA array
Settings: with glucosamine-6-phosphate
Summary of the method: (§1)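 Sequenced MiSeq chips were the platform: E. coli RNA polymerase transcribed barcoded ribozyme variants on them in situ, and a hybridised Cy3 probe tracked these at 37 °C. After glucosamine-6-phosphate (40 μM to 10 mM) in HEPES/KCl/Mg(OAc)2 buffer was flowed in, tiles were imaged over ~14 h. Signals normalised to baseline and to non-cleaving reference variants were reduced to per-tile medians and fit to one- or two-exponential decays to obtain kobs. kcat and KM were derived through weighted Michaelis–Menten fits across concentrations.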

Variant	self-cleavage kobs at 2500 uM GlcN6P [s⁻¹]
G7A U31C A39G A52U	< 1e-05
C10A G41C C50G A53C	< 1e-05
C16U G29U A53U	0.00254 ± 0.00062
G7U G38U G66U	< 1e-05
C8A G32U A48C	< 1e-05
A12C A15U G41A A53C C58U U65A	< 1e-05
A14C A15C G38U	< 1e-05
C11G C61A G62C	< 1e-05
C8A G59A C70U	< 1e-05
A12G U56G C70G	0.000113 ± 3e-05
G13C U30C G35C G40U U47C C50A	< 1e-05
A15U U56C C68A C71G	< 1e-05
A14U A36U G41A A48G C68U	< 1e-05
A15G A33C U45A	0.000135 ± 4.1e-05
C10G C11A A33C A36U A52U A53C U56A G62U	< 1e-05
A12U G13C U56G C67U	< 1e-05
G7C G13A A52U G66C	< 1e-05
G7U A64G G66A	< 1e-05
C8G C10U G37U A42C U54G A64G C70G	< 1e-05
C10U U47G A52U U69A	7.36e-05 ± 3.5e-05
G9A C11G A33U G35A C58A C70G	< 1e-05
C8G A15G U30C A42G U45A U46G	< 1e-05
A12U G40A A53C	0.00179 ± 0.00063
A12G A42C G59U G63U	< 1e-05

Variant	self-cleavage kobs at 2500 uM GlcN6P [s⁻¹]
G9A C50G U55A C67G	4.95e-05 ± 1.9e-05
C11U U46G A52U G66A	< 1e-05
C16G G59U G60C C68G	< 1e-05
C16U G37C G51C G59C G60C	< 1e-05
C11U U31C C50U	< 1e-05
C11A U54C C58A G66C	< 1e-05
G26U G32A G63A C71U	< 1e-05
A14G G29C A39G	0.000197 ± 9.1e-05
C11U A14C C16A G38U G40A C50G	6.83e-05 ± 2.4e-05
A6G G38C G41U C68U	< 1e-05
C8A A53C U55C G60U C68G	< 1e-05
A14U G29A G40U U45A C50G C71G	< 1e-05
G13C G29C G38U C67G	0.000596 ± 0.0002
C10A A48C A64U	< 1e-05
C8G C11A G13U A33U A36C U55C C58G C71G	< 1e-05
G13A U65G	8.18e-05 ± 2e-05
G29A G60U A64G	< 1e-05
C8G G35A U65C	< 1e-05
C8G A15U U55C	< 1e-05
A14G G51C A64U C67G C71U	< 1e-05
G29C A42G C67G	0.000111 ± 5.1e-05
G13C G35C G44U U56A C61U	< 1e-05
C10A C16G C50A C58G C61U	6.15e-05 ± 1.9e-05
C11U G44C A52U G60C	< 1e-05

Variant	self-cleavage kobs at 2500 uM GlcN6P [s⁻¹]
C16A G29U C68U C71U	6.71e-05 ± 2.1e-05
C11U G32C C50G C61G	0.000267 ± 7.4e-05
C11U U49C U56G	< 1e-05
C10G C34G A48C	< 1e-05
A15G G32A C68U	0.000247 ± 8.7e-05
C16G G43U U45A U65G C68U C70U	< 1e-05
C16U U30G G32A C68U	7.75e-05 ± 3.2e-05
A12U G35U A53U C61G U65C	< 1e-05
A12C U54G C71U	0.00338 ± 0.0011
A6U A52G C67G	0.000425 ± 0.00018
C8U G32U U45C	< 1e-05
G9A A14G A15U U55A	7.2e-05 ± 1.6e-05
C11A U45A U56A	9.98e-05 ± 2.9e-05
C8A A48C U49A	< 1e-05
A12U G44C A53G U56A	7.9e-05 ± 2.1e-05
G9C A39C C67A	< 1e-05
C8U G51U U57C	< 1e-05
G7A U30G G32A A39G	< 1e-05
A15C G32U C34U	< 1e-05
G26U A33C C34A U47G	< 1e-05
C16U G51C U54C U57G	< 1e-05
A12U C34U C71U	< 1e-05
G13U G40A A53G	0.000153 ± 3.6e-05
G13C A33G G35A A48G A64G	< 1e-05

Variant	self-cleavage kobs at 2500 uM GlcN6P [s⁻¹]
C11G G37A G60U G63C U69C C70U	< 1e-05
C11G A15U A42U U46C	< 1e-05
A12U A36G A52C C67U C71U	< 1e-05
A12U G51A G60U	< 1e-05
C11U G29A G38U U47C	< 1e-05
C10A U47G G59U C68U	5.63e-05 ± 1.7e-05
A15U G44U C71U	< 1e-05
A15U G35C C68G	< 1e-05
A12G A53G G63C	< 1e-05
C8A G41A U65C	< 1e-05
C16G A48C G60U A64U	< 1e-05
A6G G41U U46G G60C	< 1e-05
A12G C16U C67U	0.000252 ± 5.2e-05
C10G G35U U46G C68A	< 1e-05
C11G U30C G40C	< 1e-05
G7C A42G G59U	< 1e-05
A12G A14U G66A	6.8e-05 ± 1.9e-05
A12U G13A G32C A36G C61U	< 1e-05
A15G U55A G66C	0.000727 ± 0.00013
C11A C16A A42C	< 1e-05
C8U G29U A36U	< 1e-05
C11G U49C C70U	< 1e-05
C10G C11G A36C G38C A53C G60U	< 1e-05
A12G A14C A53U A64C	< 1e-05

Variant	self-cleavage kobs at 2500 uM GlcN6P [s⁻¹]
C10U G29C G62C	< 1e-05
C16G U30C A33C C68U	< 1e-05
C8G G40U G41C	< 1e-05
A6G U30C G44U A52C G63U	< 1e-05
C11G G43U C58A	< 1e-05
A14G A42C U49C	< 1e-05
A14G G41U U69A	8.6e-05 ± 2e-05
G13U G40A A42C U65G	< 1e-05
G7A G38U G41U	< 1e-05
C16A G29C U45C	0.000155 ± 3.5e-05
A15G A33G A48C C61A	< 1e-05
A12U A14U G29C U49A	< 1e-05
A15G G32C C68G	< 1e-05
A6G G29A G60A	< 1e-05
G13U A39C A48C	< 1e-05
A6U A12U U55A	0.000377 ± 9.2e-05
C16G G29U C34G	< 1e-05
G9C A12G C58G	< 1e-05
G29A G41A	6.8e-05 ± 2e-05
A15G G35A U46C A53C	< 1e-05
A14C C34G A39C	< 1e-05
C10G A14C U30G G43A	< 1e-05
A6U G35C U56A G60U A64G	< 1e-05
G7C A53G C70A	< 1e-05

Variant	self-cleavage kobs at 2500 uM GlcN6P [s⁻¹]
G9U G38C G40U G43C	< 1e-05
C8U A42G G43U U49G	< 1e-05
C8U C10G G38A	< 1e-05
G9U C50A G51U C68G	0.00198 ± 0.00067
A12G C68A C71A	< 1e-05
A12C U49G G62U	< 1e-05
G13C A42U G43C G51C U57G A64G C71U	< 1e-05
G7C A12U A39G A53U	< 1e-05
C10U A12U A42G	0.000153 ± 5.7e-05
A14G A33U G60U	< 1e-05
G29A G43C C68G	0.00377 ± 0.0014
G9C C11G C71U	< 1e-05
A6U G35U G59U	< 1e-05
A14G A36G C58G	< 1e-05
A15C U30A U31C C71G	0.000148 ± 5.9e-05
A15C G37U G40C	< 1e-05
A12G U45G C50A U57G	< 1e-05
A14G U55G C68A	0.000208 ± 5.1e-05
G9A G44U G60A	< 1e-05
C11U C19A	0.000235 ± 0.0001
C16A G59U A64U C67G	< 1e-05
G7A G9A G38A U65G	< 1e-05
A12C A14U A53C	8.51e-05 ± 4e-05
C11G G13A C16G G29C G37C A53G	< 1e-05

Variant	self-cleavage kobs at 2500 uM GlcN6P [s⁻¹]
C8A C61G A64G	< 1e-05
A15U C16U C58G C70U	7.87e-05 ± 2.1e-05
C10U G13U A64C	< 1e-05
C11A A12G G44U C71A	< 1e-05
C10A A15C U46A C61U U65C	< 1e-05
A15U A64G C71G	5.53e-05 ± 1.5e-05
G13A A36U G40A	< 1e-05
A12G U30A U69C	5.49e-05 ± 1.7e-05
C8A A36G A53G	< 1e-05
C16U U46C A53C	0.000978 ± 0.0002
A12C A14G G40C U56G C68U	< 1e-05
G7U C16U U46A	< 1e-05
A14G C34A U55G C70A	< 1e-05
A14G U31G G43C	< 1e-05
G9C G40U G41U U45G	< 1e-05
A6U A36U G37C A48U	< 1e-05
A14G G44C	0.000239 ± 4.2e-05
A15C U31G G59C	< 1e-05
G13C U47A U69G	0.000497 ± 0.00015
C10G C34U U46C C70U	< 1e-05

Variants of: B1
Assay: self-cleavage kobs at 10000 uM GlcN6P; higher = faster cleavage; RNA array
Settings: with glucosamine-6-phosphate
Summary of the method: as §1

Variant	self-cleavage kobs at 10000 uM GlcN6P [s⁻¹]
C16U G29U A53U	0.00591 ± 0.00094
A12G U56G C70G	7.52e-05 ± 2e-05
A12U G40A A53C	0.00159 ± 0.00056
A14G G29C A39G	0.000412 ± 7.6e-05
C16U U30G G32A C68U	0.000157 ± 5.1e-05
A15U G44U C71U	< 1e-05
G29A G41A	5.78e-05 ± 1.5e-05
A14G A33U G60U	< 1e-05
A12G U45G C50A U57G	< 1e-05
G7A G9A G38A U65G	< 1e-05
A14G G44C	0.000423 ± 7.7e-05
